Assay results from paper PMC12525626, “Phosphorylation as a candidate regulatory mechanism for effector recruitment to tankyrase” (Royal Society Open Science, 2025).
Square brackets hold non-standard residues; d marks the D form. 5(6)‑carboxyfluorescein = 5(6)-carboxyfluorescein; pS = N[C@@H](COP(=O)(O)O)C(=O)O; βAla = NCCC(=O)O

T1: Human TNKS2 ARC4 (residues 488-649), wild type (human, UniProt Q9H2K2 488-649)
T1 construct: Tankyrase-2 (TNKS2), human, ankyrin repeat cluster 4, residues 488-649 of NM_025235.2, from the construct pETM30-2-TNKS2 ARC4; Monomeric by SEC-MALS; also called WT ARC4; tankyrase ankyrin repeat cluster 4; source: E. coli BL21-CodonPlus(DE3)-RIL, purified (HisTrap, TEV cleavage, second HisTrap, Superdex 75)
T1 sequence (looked up): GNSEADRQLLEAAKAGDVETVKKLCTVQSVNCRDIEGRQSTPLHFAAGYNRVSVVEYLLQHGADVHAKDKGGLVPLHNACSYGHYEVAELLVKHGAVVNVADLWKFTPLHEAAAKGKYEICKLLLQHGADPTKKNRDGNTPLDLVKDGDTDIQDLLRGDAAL

B1: MDC1 TBM1 peptide, non-phosphorylated (5(6)-carboxyfluorescein-βAla-QRGEPEGGSQ-NH2) (peptide)
peptide: {5(6)‑carboxyfluorescein-βAla}-QRGEPEGGSQ-NH2
notes: also called Non-phosphorylated TBM1; source: synthetic peptide (JPT, Berlin; crude stock, greater than 70% pure by HPLC)
B2: MDC1 phospho-TBM1 peptide for co-crystallization (acetyl-943ERDTQRGEPEGG-pS-QDQ958-NH2) (peptide)
peptide: Ac-ERDTQRGEPEGG[pS]QDQ-NH2
SMILES: CC(=O)N[C@@H](CCC(=O)O)C(=O)N[C@@H](CCCNC(=N)N)C(=O)N[C@@H](CC(=O)O)C(=O)N[C@H](C(=O)N[C@@H](CCC(N)=O)C(=O)N[C@@H](CCCNC(=N)N)C(=O)NCC(=O)N[C@@H](CCC(=O)O)C(=O)N1CCC[C@H]1C(=O)N[C@@H](CCC(=O)O)C(=O)NCC(=O)NCC(=O)N[C@@H](COP(=O)(O)O)C(=O)N[C@@H](CCC(N)=O)C(=O)N[C@@H](CC(=O)O)C(=O)N[C@@H](CCC(N)=O)C(N)=O)[C@@H](C)O
notes: Mediator of DNA damage checkpoint protein 1 (MDC1), human, residues 943-958 around TBM1; also called phospho-MDC1 peptide; source: synthetic peptide (JPT, Berlin; HPLC-purified)

Legend:
[1] = target: T1, Human TNKS2 ARC4 (residues 488-649), …; assay: fluorescence polarisation; carboxyfluorescein-labelled MDC1 TBM1 peptides with TNKS2 ARC4 protein (no-protein wells as baseline); POLARstar Omega plate reader; n = 3 separate experiments in technical duplicate; one-site total binding model, standard errors of the fit; conditions: both partners purified
[2] = target: T1, Human TNKS2 ARC4 (residues 488-649), …; assay: crystal structure; TNKS2 ARC4 at 20 mg/ml with 1.5-fold molar excess of phospho-MDC1 peptide in 25 mM HEPES-NaOH pH 7.5, 100 mM NaCl, 2 mM TCEP; sitting drop, 4°C, 0.1 M Na cacodylate pH 6.5, 0.2 M Na acetate, 30% PEG 8000; molecular replacement; conditions: both partners purified

| Binder | Kd [1] | binding result [2] |
| --- | --- | --- |
| B1 | 4.5 µM | – |
| B2 | – | binds |
